Data reported in publication PMC4926069.

Target: Angiotensin I-converting enzyme (ACE, EC 3.4.15.1, from rabbit lung) (rabbit) (UniProt P12822)
Chain of UniProt P12822 (P12822 34-1310): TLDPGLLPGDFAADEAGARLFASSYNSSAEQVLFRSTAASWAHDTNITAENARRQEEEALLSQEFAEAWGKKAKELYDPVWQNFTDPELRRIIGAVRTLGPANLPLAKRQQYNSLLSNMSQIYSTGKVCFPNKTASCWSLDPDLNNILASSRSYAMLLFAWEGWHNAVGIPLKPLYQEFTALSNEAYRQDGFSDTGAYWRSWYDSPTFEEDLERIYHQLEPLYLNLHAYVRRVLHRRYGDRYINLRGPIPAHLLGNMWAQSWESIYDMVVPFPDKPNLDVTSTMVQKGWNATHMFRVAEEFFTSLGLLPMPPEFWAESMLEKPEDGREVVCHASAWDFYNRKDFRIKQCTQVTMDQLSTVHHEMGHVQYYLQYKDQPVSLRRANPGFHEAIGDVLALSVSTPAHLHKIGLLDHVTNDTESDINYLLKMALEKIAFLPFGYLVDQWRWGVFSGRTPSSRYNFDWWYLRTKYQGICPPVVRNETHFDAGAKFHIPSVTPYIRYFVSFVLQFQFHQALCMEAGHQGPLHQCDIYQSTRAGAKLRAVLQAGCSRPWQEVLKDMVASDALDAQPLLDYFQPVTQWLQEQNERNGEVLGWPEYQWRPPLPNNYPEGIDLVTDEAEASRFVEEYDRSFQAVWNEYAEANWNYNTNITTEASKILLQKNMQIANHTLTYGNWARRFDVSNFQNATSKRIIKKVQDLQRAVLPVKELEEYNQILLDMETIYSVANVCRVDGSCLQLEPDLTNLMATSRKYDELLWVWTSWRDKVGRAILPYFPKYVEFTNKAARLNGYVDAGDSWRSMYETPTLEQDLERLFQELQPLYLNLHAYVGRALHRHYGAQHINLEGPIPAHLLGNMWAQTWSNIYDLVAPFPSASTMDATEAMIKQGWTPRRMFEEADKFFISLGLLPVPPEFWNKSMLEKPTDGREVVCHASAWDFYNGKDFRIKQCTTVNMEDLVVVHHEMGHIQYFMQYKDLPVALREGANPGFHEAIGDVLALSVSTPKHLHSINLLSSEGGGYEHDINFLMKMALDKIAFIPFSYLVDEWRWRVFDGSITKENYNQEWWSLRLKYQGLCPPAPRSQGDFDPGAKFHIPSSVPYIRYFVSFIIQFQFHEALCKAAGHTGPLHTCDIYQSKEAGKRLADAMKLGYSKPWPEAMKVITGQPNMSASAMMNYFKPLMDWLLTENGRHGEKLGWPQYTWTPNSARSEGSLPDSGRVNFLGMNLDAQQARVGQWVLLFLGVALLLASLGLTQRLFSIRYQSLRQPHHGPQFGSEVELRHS

- IC50 of inhibition of ACE activity (HHL as substrate, hippuric acid measured by RP-HPLC; 0.25–100 μM peptide, four-parameter logistic fit): 9.8 μM
Substance: Val-Gln-Tyr (VQY) (peptide)
